Data on one sequence can be found in PMC3097263.

The data set addresses T1, MqsA N97A/R101A N97A;R101A (Escherichia coli K-12?) (UniProt Q46864).
T1 sequence: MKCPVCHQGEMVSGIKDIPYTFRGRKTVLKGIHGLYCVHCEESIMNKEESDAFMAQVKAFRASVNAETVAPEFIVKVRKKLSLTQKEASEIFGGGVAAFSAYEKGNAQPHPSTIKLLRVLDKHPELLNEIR
Kind of data set: EMSA. The following applies: 20 min at room temperature, binding buffer. A general note: Mobility shift assays separate free from complexed probe on a gel.

For “TGAACGTTGGTCAGACCTTGCAGGTGGGTAATGCTTCCGGTACGCCAATCACTGGCGGAAATGCCATTACCCAGGCCGACGCAGCAGAGCAAGGAGTTGTGATCAAGCCTGCACAAAATTCCACCGTTGCTGTTGCGTCGCAACCGACAATTACGTATTCTGAGTCTTCGGGTGAACAGAGTGCT (double strand) [PrpoS (Suppl. Fig. 3b probe)]”, the binding entry is on record as “no binding”.
